# Reference: the Immune Epitope Database (IEDB)
# Columns and labels:
# [1] = target: HLA-A*24:02; test: IEDB peptide-MHC binding, purified MHC/competitive/fluorescence; ≥ and ≤ were set here for values at or beyond the usual limits of such assays
# [2] = target: HLA-A*30:01; test: IEDB peptide-MHC binding, purified MHC/competitive/radioactivity; filed as Kd, often an IC50 or EC50 that approximates it; ≥ and ≤ were set here for values at or beyond the usual limits of such assays
# [3] = target: HLA-A*30:02; test: as above
# [4] = target: HLA-A*26:01; test: as above
# [5] = target: HLA-A*23:01; test: as above
# [6] = target: HLA-A*24:02; test: as above
# [7] = target: HLA-A*32:01; test: as above
# [8] = target: HLA-A*01:01; test: as above
# [9] = target: HLA-A*29:02; test: as above
# [10] = target: HLA-A*02:01; test: as above
# [11] = target: HLA-A*33:01; test: as above; details: source organism: Vaccinia virus WR
# [12] = target: HLA-A*31:01; test: as above; details: source organism: Vaccinia virus WR
# [13] = target: HLA-A*03:01; test: as above; details: source organism: Vaccinia virus WR
# [14] = target: HLA-A*11:01; test: as above; details: source organism: Vaccinia virus WR
# [15] = target: HLA-A*68:01; test: as above; details: source organism: Vaccinia virus WR
# [16] = target: HLA-B*15:01; test: as above
# [17] = target: HLA-B*07:02; test: as above
# [18] = target: HLA-B*51:01; test: as above; details: source organism: Dengue virus 2 Jamaica/1409/1983
# [19] = target: HLA-B*35:01; test: as above; details: source organism: Dengue virus 2 Jamaica/1409/1983
# [20] = target: HLA-B*53:01; test: as above
# [21] = target: HLA-A*02:02; test: as above; details: source organism: Trypanosoma cruzi
# [22] = target: HLA-A*02:03; test: as above; details: source organism: Trypanosoma cruzi
# [23] = target: HLA-A*02:06; test: as above; details: source organism: Trypanosoma cruzi
# [24] = target: HLA-A*68:02; test: as above
# [25] = source organism: Zaire ebolavirus
# [26] = source organism: Dengue virus 1 Singapore/S275/1990
# [27] = source organism: Mammarenavirus juninense
# [28] = source organism: Vaccinia virus WR
# [29] = source organism: Dengue virus 3 Martinique/1243/1999
# [30] = source organism: Dengue virus 2 Jamaica/1409/1983
# [31] = source organism: SARS coronavirus Tor2
# [32] = source organism: Dengue virus 1 Brazil/97-11/1997
# [33] = source organism: Mammarenavirus brazilense
# [34] = source organism: Trypanosoma cruzi
# [35] = source organism: Dengue virus 1 Nauru/West Pac/1974
# [36] = source organism: Dengue virus 3 Sri Lanka/1266/2000
sequence,measurement,setting,value
QARFSGLLI,IC50,[1]; [25],16700 nM
LGSLGCKPLT,Kd,[2]; [26],1410 nM
EDAMPGVLSY,Kd,[3]; [27],15500 nM
same,Kd,[4]; [27],1810 nM
same,Kd,[5]; [27],16400 nM
same,Kd,[6]; [27],≥ 46400 nM
same,Kd,[2]; [27],≥ 70400 nM
same,Kd,[7]; [27],≥ 69900 nM
same,Kd,[8]; [27],10600 nM
same,Kd,[9]; [27],11100 nM
QAVNNLVEL,Kd,[10]; source organism: Lassa virus Josiah,4570 nM
AAKGASMTL,Kd,[2]; [28],0.998 nM
LARRPTPKK,Kd,[11],19300 nM
same,Kd,[12],70.4 nM
same,Kd,[2]; source organism: Vaccinia virus Copenhagen,10.4 nM
same,Kd,[13],185 nM
same,Kd,[14],431 nM
same,Kd,[15],430 nM
AYQGDYKLF,IC50,[1]; [25],540 nM
KYKPVYSYV,Kd,[2]; [28],0.74 nM
GAQHSTTLF,IC50,[1]; source organism: Sudan ebolavirus,42100 nM
ISKIPGGAMY,Kd,[3]; [29],9.35 nM
same,Kd,[16]; [29],136 nM
same,Kd,[8]; [29],≥ 23800 nM
QPATLRKYCI,Kd,[17]; [30],660 nM
same,Kd,[18],≥ 26100 nM
KYYIKNIGN,IC50,[1]; source organism: Vaccinia virus,≥ 101000 nM
TPKAKRGTAQ,Kd,[17]; [26],1410 nM
LLFILFYFA,Kd,[16]; [28],242 nM
VMTKWCAPF,Kd,[16]; [28],1.86 nM
LTYFCFVAL,Kd,[16]; [28],28.5 nM
same,Kd,[7]; [28],615 nM
KLFMALVAF,Kd,[5]; [30],4740 nM
same,Kd,[16]; [30],198 nM
same,Kd,[7]; [30],37.8 nM
LSRNSTHEM,Kd,[16]; [29],39.7 nM
same,Kd,[2]; [29],106 nM
EIAKYGHSF,Kd,[16]; [28],57.6 nM
LQIFSNSVG,Kd,[16]; [28],2.07 nM
TYASALWEI,Kd,[3]; [31],≥ 81100 nM
same,Kd,[4]; [31],≥ 77900 nM
same,Kd,[5]; [31],8140 nM
same,Kd,[6]; [31],≥ 21500 nM
same,Kd,[8]; [31],≥ 78100 nM
same,Kd,[9]; [31],14200 nM
YLALYNKYKY,Kd,[3]; [31],34.5 nM
same,Kd,[4]; [31],19200 nM
same,Kd,[5]; [31],11600 nM
same,Kd,[6]; [31],18600 nM
same,Kd,[8]; [31],244 nM
same,Kd,[9]; [31],43.2 nM
EGVVAFLIL,IC50,[1]; [25],≥ 80300 nM
VYKVYYGNAL,Kd,[3]; [31],5980 nM
same,Kd,[4]; [31],11700 nM
same,Kd,[5]; [31],746 nM
same,Kd,[6]; [31],203 nM
same,Kd,[8]; [31],≥ 37200 nM
same,Kd,[9]; [31],7770 nM
TARGARRMA,Kd,[2]; [32],6300 nM
TADDITMGY,Kd,[3]; [33],9930 nM
same,Kd,[4]; [33],4700 nM
same,Kd,[2]; [33],≥ 78100 nM
same,Kd,[7]; [33],≥ 77800 nM
same,Kd,[8]; [33],18.8 nM
same,Kd,[9]; [33],11300 nM
FPQSNAPIM,Kd,[19],13600 nM
same,Kd,[17]; [30],12.1 nM
same,Kd,[18],632 nM
same,Kd,[20]; [30],1.8 nM
GLLPSLLLLG,Kd,[21],261 nM
same,Kd,[22],137 nM
same,Kd,[10]; [34],120 nM
same,Kd,[23],127 nM
same,Kd,[24]; [34],3750 nM
MLRVYNNTA,Kd,[16]; [28],188 nM
MMLKLLTDF,Kd,[5]; [35],357 nM
same,Kd,[16]; [35],11.5 nM
same,Kd,[7]; [35],56.7 nM
LFLAFVVFL,Kd,[3]; [31],≥ 34300 nM
same,Kd,[4]; [31],571 nM
same,Kd,[5]; [31],1880 nM
same,Kd,[6]; [31],≥ 29900 nM
same,Kd,[8]; [31],812 nM
same,Kd,[9]; [31],7980 nM
LVKRFSTGLF,Kd,[16]; source organism: Dengue virus 4 Philippines/H241/1956,256 nM
TPTGTVMDII,Kd,[17]; [29],219 nM
LPEYGTLGL,Kd,[17]; [29],40.1 nM
same,Kd,[20]; [29],545 nM
VLTGGVTLFF,Kd,[16]; [32],194 nM
same,Kd,[6]; [32],1610 nM
TVAAMGVPPL,Kd,[4]; [36],12200 nM
same,Kd,[2]; [36],3210 nM
same,Kd,[24]; [36],19.8 nM
